Measured values as given in patent US20010023062A1.

Tests used:
[1] = molecular target: IL-5Rα/IFNaR2-2 + βc/IFNaR1 (human) (UniProt Q01344); assay: cell-based or functional assay
[2] = molecular target: IL-5Rα/IFNaR1 + βc/IFNaR2-2 (human) (UniProt Q01344); assay: cell-based or functional assay

| Substance | SEAP activity (6-16SEAP reporter, transient transfection of 2fTGH cells), 1 ng/ml IL-5, against untreated cells [1] | SEAP activity (6-16SEAP reporter, transient transfection of 2fTGH cells), 2 ng/ml IL-5, against untreated cells [1] | colonies in HAT + IL-5 (6-16 gpt selection, transfected 2fTGH cells, 1 ng/ml IL-5) [1] | colonies in HAT + IL-5 (6-16 gpt selection, transfected 2fTGH cells, 1 ng/ml IL-5) [2] | colonies surviving in HAT medium without added IL-5 (clone C cells transfected with pEFBOS-hIL-5syn) [1] |
| --- | --- | --- | --- | --- | --- |
| IL-5 (produced in Sf9 cells using published methodologies) (from UniProt P05113 20-134) (ligand) | 5 fold | 6 fold | 13 colonies | 3 colonies |  |
| hIL-5syn (human IL-5 expressed by the cells from pEFBOS-hIL-5syn or pMET7-hIL-5syn) (from UniProt P05113 20-134) (ligand) |  |  |  |  | 6 colonies |
